# Assay: yeast display, Sf9 membrane polyspecificity reagent, FACS + sequencing; frameworks hold sequencing errors
# Summary of the method: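 Nanobodies came from a synthetic yeast display library in Saccharomyces cerevisiae BJ5465, induced with galactose for 36–48 hours and stained for 1 hour at 4 °C with 10% biotinylated, detergent-solubilized Sf9 membrane reagent. Cells were enriched on streptavidin microbeads and then FACS-sorted, with low and high (top ~1%) gates set on anti-HA fluorescence for expression and streptavidin fluorescence for reagent binding. Each polyreactivity label reflects the gate a clone came from. Genes were amplified by colony PCR, sequenced by MiSeq 2 × 250 and filtered by CDR length.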
row,Sequence,polyreactivity (PSR sort gate)
1,QVQLVESGGGLVQAGGSLRLSCAASGRTFCTNAMGWYRQAPGKERELVAVISGSTGSTYYADSVKGRFTISRDNAKNTVYLQMNSLKPEDTAVYYCAASYRNTGRWSYRGDYWGQGTQVTVSS,high polyreactivity
2,QVQLVESGGGLVQAGGSLRLSCAASGRTFCTNAMGWYRQAPGTERELVAVISGSTGSTYYADSVKGRFTISRDNAKNTVYLQMNSLKPEDTAVYYCAASYRNTGRWSYRGDYWGQGTQVTVSS,high polyreactivity
3,QVQLVESGGGLVQAGGSLRLSCAASGRTFCYAMGWSRQAPGKERELVAAISYRGGGTYYADSVTGRFTISRDNAKYTVYLQMTSLKPEDTEVYFCNARQYRPWYPPYGYDYWGQGTQVTVSS,low polyreactivity
4,QVQLVESGGGLVQAGGSLRLSCAASGRTFDAYTMGWYRQAPGKEMELVAAITFSGGNTYYADSVKGRFIISRDNAKNTVYLQMNSLKPEDTAVYYCAARHWIYSTDYSTYYEYDSWGQGTQVTVSS,low polyreactivity
5,QVQLVESGGGLVQAGGSLRLSCAASGRTFDDNAMGWYRQAPGKEREFVADIDWSGGDTYYADSVKGRLTISRDNAKNTVYLQMNSLKPEDTAVYYCAARPIISVGRSRYDYWGQGTQVTVSS,high polyreactivity
6,QVQLVESGGGLVQAGGSLRLSCAASGRTFDDYAMGRYRQAPGKERELVAVITDNGGGTNYADSVKGRFTISRDNAKNTVYLQMNSLKPEDTAVYYCNAASDDFYPGRRTYGRDYWGQGTQVTVSS,low polyreactivity
7,QVQLVESGGGLVQAGGSLRLSCAASGRTFDDYTMGWYRQAPGKERELVAAITGGGSTNYADSVKGRFTISRDNAKNTVYLQMNSLKPEDTAVYYCNAEYSRSYRYDEGYWGQGTQVTVSS,low polyreactivity
8,QVQLVESGGGLVQAGGSLRLSCAASGRTFDFYAKGWYRQAPGKERELVAAITFSTGSTTYADSVKGRFTISRDNAKNTVYLQMNSLKPEDTAVYYCAADGDGWWWSYVDRYDYWGQGTQVTVSS,low polyreactivity
9,QVQLVESGGGLVQAGGSLRLSCAASGRTFDGYAMGWYRPAPGKERELVAAITYTGGSTYYADSVKGRFTISRDNAKNTVYLQMNSLKPEDTAVYYCNALYAVYSDFADDYWGQGTQVTVSS,low polyreactivity
10,QVQLVESGGGLVQAGGSLRLSCAASGRTFDHNAMGWYRQAPGKERELVAAITSRGGSTYYADSVKGRFTISRDIAKYTGYLQMNSLKPEDTAVYYCAARKRSVYGTEYDYLGQGTQVTVSS,high polyreactivity
11,QVQLVESGGGLVQAGGSLRLSCAASGRTFDIYAMGWYRPAPGKERELVAAISSGGSTYYADSVKGRFTISRDNAKNTVYLQMNSLKPEDTAVYYCAVRWYDQVSRRGIGYYWGQGTQVTVSS,low polyreactivity
12,QVQLVESGGGLVQAGGSLRLSCAASGRTFDLYAMGWYRQAPGKERELVAAITKGGGSTYYADSVKGRFTLSRDNAKNTVYLQMHSLKPVDTAVYYCAARKYKRIYRISSGIGYYWGQGTQVTVSS,high polyreactivity
13,QVQLVESGGGLVQAGGSLRLSCAASGRTFDLYAMGWYRQAPGKERELVATISRTGSTNYADSVKGRFTISRDNAKNTVYLQMNSLKPEDTAVYYCNADVPVSRWLRHGYYTVGYDYWGQGTQVTVSS,low polyreactivity
14,QVQLVESGGGLVQAGGSLRLSCAASGRTFDRNAMGWYRQAPGKERELVAAITSSGDSTYYADSVKGRFTISRDNSKNTVYLQMNSLKPEDTAVYYCAAGRRFGYWGQGTQVNVSS,high polyreactivity
15,QVQLVESGGGLVQAGGSLRLSCAASGRTFDSNAMGWYRQAPGKERELVAAISGSGDTTYYADSVKGRFTISRDNAKNTVYLQMNSLKPEDTAVYYCAARWGRSSGGGDYWGQGTQVTVSS,low polyreactivity
16,QVQLVESGGGLVQAGGSLRLSCAASGRTFDSNAMGWYRQAPGKERELVAAISSGGGSTYYADSVKGRFTISRDNAKNTVYLQMNSLKPEDTAVYYCAAVYHYYRGVNYWGQGTQVTVSS,high polyreactivity
17,QVQLVESGGGLVQAGGSLRLSCAASGRTFDTYAMGWYRQAPGKERELVAAITRRTYYADSVKGRFTISRDNAKNTVYLQMNSLKPEDTAVYYCAVRFLRKWTSSRHYGYWGQGTQVTVSS,high polyreactivity
18,QVQLVESGGGLVQAGGSLRLSCAASGRTFDYNAMGWSRQAPGKERELVAAISSSGGSTYYADSVKGRFTISRDNAKNTVYLQMNSLKPEDTAVYYCATLYPRKSIYYYWGQGTQVTVSS,high polyreactivity
19,QVQLVESGGGLVQAGGSLRLSCAASGRTFDYNAMGWYRQAPGKERELVAAISSSGGTTYYADPVKGRFTISRDNAKNTVYLQMNSLKPEDTAVYYCNADVGHKYKRRVSLYYWGQGTQVTVSS,low polyreactivity
20,QVQLVESGGGLVQAGGSLRLSCAASGRTFDYNAMGWYRQAPGKEWELVADIRLISGNTYYADSVKGRFTISRDNAKNTVYLQMNSLKPEETAVYYCAATSDGVPSLYGGMDYRGQGTQVTVSS,low polyreactivity
21,QVQLVESGGGLVQAGGSLRLSCAASGRTFDYYAMGWYRQAPGKERELVARISWNGGSTRYADSVKGRFTISRDNAKNTVYLQMNSLKPEDTAVYYCAARYILLARKYDYWGQGTQVTVSS,high polyreactivity
22,QVQLVESGGGLVQAGGSLRLSCAASGRTFDYYSMGWYRQAPGTERELVAAISSSGGRTYYADSVKGRFTISRDNAKNTVYLQMNSLKPEDTAVYYCNAVVSRNYEYWGQGTQVTVSS,high polyreactivity

row,Sequence,polyreactivity (PSR sort gate)
1,QVQLVESGGGLVQAGGSLRLSCAASGRTFEIYAMGWYRQAPGKERDLVAAITSGGSTYYADSEKGRFTISRDNAKNTVYLQMNSLKPEDTAVYYCAADSSLYGVIRDFDYWGQGTQVTVSS,high polyreactivity
2,QVQLVESGGGLVQAGGSLRLSCAASGRTFELYAMGWYRQAPGKERELVAAIRQSDVSTYYADSVKGRFTISRDNAKNTVYLQMNSLKPEDTAVYYCAARNRYRRRYYYWGQGTQVTVSS,high polyreactivity
3,QVQLVESGGGLVQAGGSLRLSCAASGRTFEPNAMGWYRPAPGKERELVAAISSSDGSTYYADSVKGRFTISRDNAKNTVYLQMNSLKPEDTAVYYCAADAGYLYDWPYNYYYWGQGTQVTVSS,low polyreactivity
4,QVQLVESGGGLVQAGGSLRLSCAASGRTFEQYAMGWYRQARGKERELVAAISGSGGSTFYADSVKGRFTISRDNAKNTVYLQMNSLKPEDTAVYYCNAPGDGYLYDHTYDYWGQGTQVTVSS,low polyreactivity
5,QVQLVESGGGLVQAGGSLRLSCAASGRTFEQYAMVWYRQAPGKERELVAAISGSGGSTFYADSVKGRFTISRDNAKNTVYLQMNSLKPEDTAVYYCNAPGDGYLYDHTYDYGGQGTQVTVSS,low polyreactivity
6,QVQLVESGGGLVQAGGSLRLSCAASGRTFEQYSMGWYRQAPGKERELVAAISGSGGSTFYADSVKGRFTISRDNAKNTVYLQMNSLKPEDTAVYYCNAPGDGYLYDHTYDYWGQGTQVTVSS,low polyreactivity
7,QVQLVESGGGLVQAGGSLRLSCAASGRTFESYVMGWYRQAPGKESELVAAISNGGSTNYADSVKGRFTISRDNAKNTVYLQMNSLKPEDTAVYYCAVRVSGPRGYDYEYWGQGTQVTVSS,low polyreactivity
8,QVQLVESGGGLVQAGGSLRLSCAASGRTFEYYAMGWYRQAPGKERELVASITSGGITNYADSVKGRFTISRDNAKNTVYLQMNSLKPEDTAVYYCNKRPWTRFDWGQGTQVTVSS,low polyreactivity
9,QVQLVESGGGLVQAGGSLRLSCAASGRTFFDYTMGWYRQAPGKERELVAAITGGDGSTYYADSVKGRFTISRDNAKNTVYLQMNSLKPEDTAVYYCAAGYTAGSYSLDADYYWGQGTQVTVSS,low polyreactivity
10,QVQLVESGGGLVQAGGSLRLSCAASGRTFFFYAMGWYRQAPGKERELVAGITSRGTRTYYADSVKGRFTISRDNAKNTVYLQMNSLKPEDTAVYYCATDDCRDWLNYWGQGTQVTVSS,low polyreactivity
11,QVQLVESGGGLVQAGGSLRLSCAASGRTFFHYAMGGSRQAPGKERELVAAMTSRGDSTYYADSVKGRFTISRDNAKNTVYLQMNSLKPAETAVYYCAVYSHRRNMNYWGQGTQVTVSS,high polyreactivity
12,QVQLVESGGGLVQAGGSLRLSCAASGRTFFINAMGWYRQAPGKERELVAAMRVGAGSTYYADSVKGRFTISRDNAKNTVYLQMNSLKPEDTAVYYCSKRTATSTRKYDYWGQGTQVTVSS,high polyreactivity
13,QVQLVESGGGLVQAGGSLRLSCAASGRTFFINTMGWYRQAPGKEREFVAAITWSAGRTYYADSVKGRFTISRDNAKNTVYLQMNSLKPEDTAVYYCAAALHGHTFPFYYWGQGTQVTVSS,low polyreactivity
14,QVQLVESGGGLVQAGGSLRLSCAASGRTFFIYAMGWYRQAPGKERELVAAIRWRGGSTYYADSVKGRFTISRDNAKNTVYLLMNSLKPEDTAVYYCAASTRQARYEDYYWGQGTQVTVSS,high polyreactivity
15,QVQLVESGGGLVQAGGSLRLSCAASGRTFFKYAMGWYRQAPGKERELVATITSSGGITYADSVKGRFTISRDNAKNTVYLQMNSLKPEDTAVYYCNARVWVTHYSELNYWGQGTQLTVSS,low polyreactivity
16,QVQLVESGGGLVQAGGSLRLSCAASGRTFFKYVKGWYRQAPGKERELVAAISSGGSTNYADSVKGRFTISRDNAKNTVYLQMNSVKPEDTAVYSCAASRYRGYYYWGQGTQVTVSS,high polyreactivity
17,QVQLVESGGGLVQAGGSLRLSCAASGRTFFLYTMGWYRQAPGKEREFVAAINYSGGRTYYADSVKGRVTISRDHAKNTVYLQMNSLKPEDTAVDYCNAVYSFLYPDHMGYWGQGTQVTVSS,high polyreactivity
18,QVQLVESGGGLVQAGGSLRLSCAASGRTFFPYAMGWYRPAPGKERELVAAITRSGSTYYADSVKGRFTISRDNAKNTVYLQMNSLKPEDTAVYYCAADYSPWRSDFDYWGQGTQVTVSS,low polyreactivity
19,QVQLVESGGGLVQAGGSLRLSCAASGRTFFPYAMGWYRQEPGKERELVADIRRGGSTYYADSVKGRFTISRDNAKNNVYLQMYSLKPEDTAVYYCNVDFWWNRLYELDYWGQGTQVTVSS,high polyreactivity
20,QVQLVESGGGLVQAGGSLRLSCAASGRTFFRYAMGWYRQAPGKERELVAAISRSGGGTYYADSVKGRFTISRDNAKNTVYLQMNSLKPEDTAVYYCNRDDYSRNHVYEFDYWGQGTQVTVSS,low polyreactivity
21,QVQLVESGGGLVQAGGSLRLSCAASGRTFFRYVMGWYRQAPGKERELVAAISRSGGSTYYADSVKGRFTISRDNAKITVYLQMNSLKTEDTAVYYCNSVARSTVVPTEFDYWGQGTQVTVSS,high polyreactivity

# Reference: the nanobody polyreactivity screen of Harvey et al. (2022)
